Test results from patent publication US8361510B2, “Nanogels for cellular delivery of therapeutics” (Georgia Tech Research Corporation, priority 2008, dated 2013).
Where no end group is shown, it is not given here.

Experiments:
Hey cells [1] = experiment: Trypan blue exclusion assay; type: cell-based
Experimental: Toxicity Studies—Trypan blue exclusion assay. Hey cells were plated onto an 8-well chamber slide (1×10^4 cells/well) and allowed to adhere overnight at 37° C. and 5% CO2. The media was removed, the wells washed with PBS, and the medium replaced. PNIPMAm nanogels, YSA-conjugated nanogels, and SCR-conjugated nanogels were added to cells and incubated for 72 h. Untreated cells were used as controls. After 72 h, the cells washed with PBS, and a 1:1 solution of trypan blue was added to each well. After 1 min, the trypan blue was removed, the cells were washed with PBS, fixed with 2% (v/v) paraformaldehyde, and air dried. Each well was then viewed via bright field microscopy to determine the number of stained (dead) versus unstained cells. Five fields were viewed for each treatment.

[2] = siRNA release from nanogels in PBS containing 10% fetal bovine serum; type: physicochemical; settings: after the first 12 hours, 37° C., PBS with 10% fetal bovine serum
Experimental: [formula] The release of solutes from nanogels was performed in 10% serum to simulate physiological conditions. Release experiments were performed by dispersing 200 μL of loaded nanogels in 2.20 mL of 0.01 M phosphate buffered saline containing 10% fetal bovine serum (equilibrated at 37° C.) in 3.2 mL polycarbonate centrifuge tubes (Beckman Coulter, USA). The nanogel suspension was allowed to incubate at 37° C. while shaking. At specific time points, the tubes were centrifuged for […] at 687 000×g (at 37° C.), and an aliquot of supernatant (0.75 mL) was removed for UV-vis analysis. This volume was replaced with fresh buffer. […] The cumulative siRNA released was calculated by calculating the total moles detected in the supernatant as a function of time, as described in Equation 2.
All release studies were performed in triplicate for statistical analysis, using identical nanogel loading and release conditions.

Hey cells [3] = experiment: Nanogel/siGLO uptake by confocal microscopy, Hey cells; type: cell-based; settings: Hey cells (high EphA2), 4 h incubation, serum-containing medium
Experimental: Cell transfection using nanogels. Hey or BG-1 cells were plated onto an 8-well chamber slide (5×10^3 cells/well), and the cells allowed to adhere overnight at 37° C. in a 5% CO2 atmosphere. After washing the wells with PBS and replacing the media, siGLO-loaded/YSA-conjugated nanogels, unloaded YSA-conjugated nanogels, pNIPMAm nanogels, or siGLO only were added to wells. Cells were incubated in each case for 4 h. In experiments where preincubation of ephrin-A1 was used to initiate internalization and degradation of EphA2, ephrin-A1 was added to the media at a final concentration of the ligand of 2 μg/mL. After incubation, the cells were washed with PBS, and the medium replaced. For fixation prior to confocal imaging, the cells were incubated with 2% (v/v) paraformaldehyde for 30 min
Confocal microscopy. A Zeiss LSM510 confocal microscope was used to take cell images. Cells were incubated with nanogels for 4 h. After 4 h, the cells were washed and then fixed on the slide. […]
Following loading with siGLO, nanogels were incubated with either Hey (high EphA2 expression) or BG-1 (low EphA2 expression) cells in order to compare the levels of targeted uptake by ovarian cancer cells. Uptake of the nanogels into the cells was followed using a fluorescent tag (AFA) incorporated into the nanogel core as well as by the fluorescence of the siGLO. […]

For “YSA-conjugated nanogels: core/shell pNIPMAm nanogels with YSA peptide coupled to shell amines via maleimide (EMCA) (YSAYPDSVPMMSC; also: coupled to nanogel shell amines via maleimide (EMCA))”, the “blue (dead) cells” value (Hey cells [1]) was “not observed”, the “siRNA retained in the nanogels” value [2] was “approximately 70%” and the “nanogel uptake (green AFA fluorescence)” value (Hey cells [3]) was “strong green fluorescence”.
